Measurements taken from publication PMC3630358.

Target: TraF/VirB10 C-terminal domain starting at N161 (elastase-cleaved, C-terminal Strep-tag) (Escherichia coli (plasmid pKM101)) (UniProt Q46705)
Assay: cryo-EM structure

TraF/VirB10 C-terminal domain starting at N161 (elastase-cleaved, C-terminal Strep-tag) (from UniProt Q46705 161-386) (domain or fragment)
stoichiometry N: 14
